Reference: patent US20240132548A1 (Janssen / Centocor, published 2024)

Experiments:
Experiment in all cases: BLI (Octet), biotinylated mAb on streptavidin sensors, culture supernatant
[1] = biological target: T1, RSV181178 (I152M + K226M) (respiratory syncytial virus, subgroup B …, UniProt O36634 26-109; P13843 137-540)
T1 construct: Measured in crude culture supernatant, no furin co-transfection
T1 chain 1: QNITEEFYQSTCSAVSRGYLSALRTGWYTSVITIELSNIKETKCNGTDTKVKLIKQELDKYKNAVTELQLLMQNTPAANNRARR
T1 chain 2: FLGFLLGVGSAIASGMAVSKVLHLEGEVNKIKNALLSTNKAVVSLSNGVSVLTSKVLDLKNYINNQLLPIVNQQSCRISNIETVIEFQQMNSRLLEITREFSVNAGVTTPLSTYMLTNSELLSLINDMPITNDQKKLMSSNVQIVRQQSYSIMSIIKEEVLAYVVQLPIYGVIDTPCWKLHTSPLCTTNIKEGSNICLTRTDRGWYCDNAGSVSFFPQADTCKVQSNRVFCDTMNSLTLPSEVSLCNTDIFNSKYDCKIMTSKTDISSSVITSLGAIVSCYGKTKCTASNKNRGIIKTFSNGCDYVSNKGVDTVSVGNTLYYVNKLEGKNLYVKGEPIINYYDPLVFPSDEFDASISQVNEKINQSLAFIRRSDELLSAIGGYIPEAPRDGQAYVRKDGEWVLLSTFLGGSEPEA
Experimental: (§1) Quantitative Octet (BioLayer Interferometry) was used for measuring protein concentration in the supernatants at day of harvest and after 7 or 30 days storage at 4° C. CR9501 (an antibody specifically recognizing pre-fusion RSV F protein, which comprises the variable regions of the antibodies 58C5 as described in WO2012/006596) and CR9506 (recognizing pre-fusion and post-fusion RSV F protein and comprising a heavy chain variable region comprising SEQ ID NO: 21, and a light chain variable region comprising SEQ ID NO: 22) were biotinylated by standard protocols and immobilized on Streptavidin biosensors (ForteBio, Portsmouth, UK).
(§2) Afterwards, the coated biosensors were blocked in mock cell culture supernatant. A quantitative experiment was performed as follows: temperature 30° C., shaking speed 1000 rpm, time of the assay 300 sec. The concentration of the protein was calculated using a standard curve. The standard curve was prepared for each coated antibody CR9501 and CR9506 using the pre-fusion RSV FA protein (SEQ ID NO: 19; described previously in WO17174568) diluted in mock medium. […] The data analysis was done using the ForteBio Data Analysis 10.0.1.6 software (ForteBio).

[2] = biological target: T2, RSV181182 (I152M + K226M + D486N + S215P + P101Q + D489Y + T357R + N371Y) (respiratory syncytial virus, subgroup B …, UniProt O36634 26-109; P13843 137-540)
T2 chain 1: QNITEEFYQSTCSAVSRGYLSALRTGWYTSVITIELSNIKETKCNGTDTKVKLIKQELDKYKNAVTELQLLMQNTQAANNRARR
T2 chain 2: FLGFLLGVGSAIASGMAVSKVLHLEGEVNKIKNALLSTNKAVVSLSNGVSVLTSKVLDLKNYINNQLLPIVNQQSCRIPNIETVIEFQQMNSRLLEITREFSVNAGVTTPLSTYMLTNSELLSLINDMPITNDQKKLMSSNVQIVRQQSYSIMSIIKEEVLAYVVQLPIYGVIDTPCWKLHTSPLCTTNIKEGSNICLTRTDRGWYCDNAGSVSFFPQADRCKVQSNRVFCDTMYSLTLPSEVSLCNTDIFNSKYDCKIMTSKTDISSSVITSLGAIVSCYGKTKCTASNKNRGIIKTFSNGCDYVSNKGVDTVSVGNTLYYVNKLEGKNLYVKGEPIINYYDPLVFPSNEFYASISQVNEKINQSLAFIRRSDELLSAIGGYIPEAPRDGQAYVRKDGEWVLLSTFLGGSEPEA
Experimental: as §1, §2

[3] = biological target: T3, RSV180916 (I152M + K226M + D486N + S215P + L203I + P101Q; C-tag, RSV A signal peptide) (respiratory syncytial virus, subgroup B …, UniProt O36634 26-109; P13843 137-540)
T3 chain 1: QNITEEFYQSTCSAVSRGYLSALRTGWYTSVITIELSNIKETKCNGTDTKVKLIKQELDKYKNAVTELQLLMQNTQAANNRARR
T3 chain 2: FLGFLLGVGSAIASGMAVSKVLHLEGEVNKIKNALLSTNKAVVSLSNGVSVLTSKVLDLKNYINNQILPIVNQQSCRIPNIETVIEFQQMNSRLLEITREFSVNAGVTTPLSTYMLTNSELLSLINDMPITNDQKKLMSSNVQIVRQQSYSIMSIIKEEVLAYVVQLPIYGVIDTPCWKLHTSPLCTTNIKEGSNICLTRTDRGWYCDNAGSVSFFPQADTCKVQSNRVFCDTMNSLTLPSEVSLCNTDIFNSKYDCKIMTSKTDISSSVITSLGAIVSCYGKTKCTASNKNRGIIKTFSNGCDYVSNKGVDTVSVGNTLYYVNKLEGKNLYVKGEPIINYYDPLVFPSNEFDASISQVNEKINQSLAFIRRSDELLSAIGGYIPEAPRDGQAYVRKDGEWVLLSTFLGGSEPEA
Experimental: as §1, §2

Measured: binding result

B1: CR9506 (antibody, human IgG1, kappa, V domains shown)
VH: EVQLVQSGAEVKKPGSSVKVSCKASGGTFSRSLITWVRQAPGQGLEWMGEISLVFGSAKNAQKFQGRVTITADESTSTAHMEMISLKHEDTAVYYCAAHQYGSGTHNNFWDESELRFDLWGQGTLVTVSS
VL: DIVMTQSPSSLSASVGDRVTIACRASQSIGTYLNWYQQKPGKAPKLLIYAASSLQSGVPSRFSGSGSGTHFTLAISSLQAEDFATYSCQQSYTIPYTFGQGTKLEIKR
notes: Biotinylated for Octet; coated and also used HRP-labelled as detection antibody in the ELISA
binds: all assays above
